Data reported in the nanobody polyreactivity screen of Harvey et al. (2022).

Assay: yeast display, Sf9 membrane polyspecificity reagent, FACS + sequencing; frameworks hold sequencing errors
How it was run: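 After 36–48 hours of galactose induction, yeast (Saccharomyces cerevisiae BJ5465) displaying a synthetic nanobody library were stained at 4 °C for 1 hour with 10% biotinylated, detergent-solubilized Sf9 membrane reagent. Streptavidin microbeads enriched the stained cells before FACS sorting into low and high (top ~1%) gates on anti-HA and streptavidin fluorescence. Each clone's polyreactivity label reflects its gate of origin.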

For “QVQLVESGGGLVQAGGSLRLSCAASGFIFDDNTMGWYRQAPGKERELVAAISYSAGSTYYADSVKGRFTISRDNAKNTVYLQMNSLKPEDTAVYYCNKDAASWDYYGGNDYWGQGTQVTVSS”, the “polyreactivity (PSR sort gate)” value was “low polyreactivity”.

With “QVQLVESGGGLVQAGGSLRLSCAASGSTLYWNAMGWYRQAPGKERELVADISSTGRTYYADSVKGRFTISRDNAKNTVYLQMNSLKPEDTAVYYCNADYFFEFDYWGQGTQVTVSS” the “polyreactivity (PSR sort gate)” value was “low polyreactivity”.

In the case of “QVQLVESGGGLVQAGGSLRLSCAASGITFEGYALGWYRQAPGKERELVAAIRSSGTSTYYADSVKGRFTISRDIAKNTVYLQMNSLKPEDTAVYYCNRARSSSRYDYWGQGTQVTVSS”, the “polyreactivity (PSR sort gate)” value was “low polyreactivity”.

With “QVQLVESGGGLVQAGGSLRLSCAASGNTFWSYAMGWYRQAPGNERELVAAITQRGGSTYYADSVKGRFTISRDNAKNTVYLQMNSLKPEDTAVYYCAADTSYKGDYWGQGTQVTVSS” the “polyreactivity (PSR sort gate)” value was “high polyreactivity”.

In the case of “QVQLVESGGGLVQAGGSLRLSCAASGFTIWSYAMGWYRQAPGKERELVAAINYRGTSTYYADSVKGRFTISRDNAKNTVYLQMHSLKPEDTAVYYCAARYYTWQRPTYDYWGQGTQVTVSS”, the “polyreactivity (PSR sort gate)” value was “high polyreactivity”.

With “QVKLVESGGGLVQAGGSLRLSCAASGGNFYRYAMGWYRQAPGKERELVAAITRGDSTNYADSVKGRFTISRDNAKNTVYLQMNSLKPEDTAVYYCNAAVSARQNDTGGFQGDYWGQGTQVTVSS” the “polyreactivity (PSR sort gate)” value was “low polyreactivity”.

With “QEQLQESGGGLVQAGGSLYLSCAASGNIFEYYDMGWYRQGKERELVAGISYGTNTNYAVSVKGRFTISRDIAKNTVYLQMNSLKPEDTAVYYCARRIGHGSRPYWLETWLYPYDYWGQGTQVTVSS” the “polyreactivity (PSR sort gate)” value was “low polyreactivity”.

For “QVQLVESGGGLVQAGGSLRISCASSGSTFGYYAIGWYRQAPGKESELVAAIRRSGGRTYYADSVKGRFTISRDNAKNTVYLQLNSLKPEDTAVYYCAKDGYSRRNSQKTPYDYWGQGTQVTVSS”, the “polyreactivity (PSR sort gate)” value was “low polyreactivity”.

For “QVQLVESGGGLVQAGGSLRLSCASSGRIFSGNAMAWYRQAPGKEMEFVASISRSGGRTRYADSVKGRFTISRDNAKNTVYLQMNSLKPEDTAVYYCAADRSRRGHLTHGYWGQGTQVTVSS”, the “polyreactivity (PSR sort gate)” value was “high polyreactivity”.

With “QVQLVESGGGLVQAGGSLRLSCAASGSTFAPNAMGWYRQAPGKERELVAVITRSVGSTYYADSVKGRFTISRDNSKNTVYLKMNSLKPEDTAVYFCAADYLRQDDYVALDYWGQGTQVTVSS” the “polyreactivity (PSR sort gate)” value was “low polyreactivity”.

For “QVQLVESGGGLVQAGGSHRLSCDASGRTFYRNAMGWYRQAPGKERELVAGISSRGGSTYYADSVKGRFTISRDNAKNTVYLQMISLKPEDTAVYYCAATSSPYSIYNSWGQGTQVTVSS”, the “polyreactivity (PSR sort gate)” value was “high polyreactivity”.

For “QVHLVESGGGLVQAGGSLRLSCAASGRIFYKNAMGWYRQAPGKERELVASITVGGGRTSYADSVKGRFTISRDNAKNTVYLQMNSLKPEDTAVFYCAATTGKTTFRATWYDYWGQCTQVTVSS”, the “polyreactivity (PSR sort gate)” value was “low polyreactivity”.

In the case of “QVQLVESGGGLVQAGGSLRLSCAASGRSFVSYAMGWYRQAPGKERELVASITSSDGTNYADSVKGRFTISRDNEKNTVYLQMNSLKPEDTAVFYCNKDGFTTDRIGPTSDYWGQGTQVTVSS”, the “polyreactivity (PSR sort gate)” value was “low polyreactivity”.

In the case of “QFQLVDSGGGLVQAGGSLRLSCAATGSTQPGYAMGWYRQAPGKERELVAAITSRGGTTYYADSVKGRFTISCDNAKNTVYLQMNSLKPEDTAVYYCAPYTSYASDYWGQGTQVTVSS”, the “polyreactivity (PSR sort gate)” value was “high polyreactivity”.

With “QVQLVESGGGLVQAGGSLRLSCAASGRIFPWYAMGWYRQAPGKERELVATITRGTSTNYADSVKGRFTISRDNAKNTVYLQMNSLKPEDTAVYYCAASSSRRRYYYWGQGTQVTVSS” the “polyreactivity (PSR sort gate)” value was “high polyreactivity”.

In the case of “QVQLVESGGGLVQAGGSLRLSCAASGIIFLANAMGWYRQAPGKERELVAAISLDGGRTYYADSVKGRFTISRDNAKNTVFLQMNSLKPEDTAVYYCAADYGYVILYEYWGQGTQVTVSS”, the “polyreactivity (PSR sort gate)” value was “low polyreactivity”.

For “QVQLVESGGGLVQEGGSLRLSCAASGFTFYWYAMGWYRQAPGKERELVAAITRSGSSTYYADSVKGRFTISRDNAKNTVYLQMNSLKPEDTEVYYCAALPYKPYYDAYDYWGQGTQVTVSS”, the “polyreactivity (PSR sort gate)” value was “high polyreactivity”.

In the case of “QVQLVESGGGLVQAGGSLRLSCAASGFTFYDYAMGWYRQAPGKEREFVAAITWSGSSTYYADSVKGRFTISRDNAKNTVYLQMNSLKPEVTAVYYCAVGPFRRRGHYPTYYRYGYWGQGTQVTVSS”, the “polyreactivity (PSR sort gate)” value was “high polyreactivity”.

With “QVQLVESGGGLVQAGGRLRLSCAASGTIFGPYAMGWYRQAPGKEREFVAAISRSGTRTNYADSVKGRFTISRDNAKNTVYLQMNSLKPEDTAVYYCAAGYYGPDPRNRYRYNYWGQGTQVTVSS” the “polyreactivity (PSR sort gate)” value was “high polyreactivity”.

For “QVQLVESGGGLVQAGGSLRLSCAASGRIFGPYAMGWYRQAPGKERELVAAISWSGGSTYYADSVKGRFTISRDNAKNTVYLQMNSLKPEDTAVYYCAARERRVYGDRFYKLDYWGQGTQVTVSS”, the “polyreactivity (PSR sort gate)” value was “high polyreactivity”.

In the case of “QVQLVESGGGLVQAGGSLRLSCAASGSIFDIYAMGWYRQAPGKERELVADITISGGSTYYADSVKGRFTISRDNAKNTVYLQMNSLKPEDTAVYYCAADVTVVLGYKYDYWGQGTQVTVSS”, the “polyreactivity (PSR sort gate)” value was “low polyreactivity”.

With “QVQLVESGGGLVQAGGSLRLSSAASGSIFYRYAMGWYRQAPGKERELVAAITQSTDSTYYADSVKGRFTISRDNAKYNVYLQMNSLKPEDTAVYYCAAYLVYYRPYAYGYWGQGSQVTVSS” the “polyreactivity (PSR sort gate)” value was “low polyreactivity”.

For “QVKLQESGGGLVQAGGSLRLSCAASGYISHADEMGWYRQAPGKEHELVASISNGGSTNYADSVKGRFTISRDNAKNTVYLQMNSLKWEDTAVYYWAAWTGQVDIHYYWGQGTQVTVSS”, the “polyreactivity (PSR sort gate)” value was “low polyreactivity”.

In the case of “QVQLVESGGGLVQAGGSLRLSCAASGRTFYVYAMGWYRQAPGKERELVAAISWGGGSTYYADSVKGRFTISRDNAKNTVYLQMNSLKPEDTAVYYFAAESWTSGTNVPVWYYGYSWGQGTQVTVSS”, the “polyreactivity (PSR sort gate)” value was “low polyreactivity”.

With “QVQLVESGGGLVQAGGSLRISCAASGSTFDYDDMRWYRQAPGKERELVASITSGGITDYADSVKGRFTISRDNAKNTVYLQMNSLTPEDTAVYYCNAARQYSRSAEGYLVWGYSWGQGTQVTVSS” the “polyreactivity (PSR sort gate)” value was “low polyreactivity”.

For “QVQLVESGGGLVQAGGSLRLSCAASGRTFCSNAMGWYRPAPGKERELVAAISNGDNTYYADSVKGRFTISRDNAKNTVYLQMNSLKPEDTAVYYCNADYTVYDTEYDYWGQGTQVTVSS”, the “polyreactivity (PSR sort gate)” value was “low polyreactivity”.

With “QVQLVESGGGLVQAGGSLRLSCAASGFTFYLYTMGWYRQAPGKERELVATINSDGGTNYADSVKGRFTISRDNAKNSVYLQMNSLKPEDTAVYYCNAASRRGSRKQAKYEYWGQGTQVTVSS” the “polyreactivity (PSR sort gate)” value was “low polyreactivity”.

For “QVQLVESGGGLVQAGGSLRLSCAASGSTFYWYAMGWYRQAPGKERELVAAISRSSGSTYYADSVKGRFTISRDNAKNSVYLQMNSLKPEDTAVYYCAADYYLRSFVWTAYDSWGQGTQVTVSS”, the “polyreactivity (PSR sort gate)” value was “high polyreactivity”.

With “QVQLVESGGGLVEAGGSLRLSCAASGRTFFSNAMVWYRQAPGKERELVAAINRGGSTYYADSVKGRFTSSRDNAKNTVNLQMNSLKPEDTAVYYCAAGYWSKNSIHYYYWGQGTQVTVSS” the “polyreactivity (PSR sort gate)” value was “high polyreactivity”.

For “QVQLVESGGGLVQAGGSLRLSCASSGRTFPGNAMGWYRQAPGKERELVAAISWSGTRTYYADSVKGRFTISRDNAKNTVYLQMNSLKPEDTAVYYCNVVVKGAWDYYPYAYWGQGTQVTVSA”, the “polyreactivity (PSR sort gate)” value was “high polyreactivity”.

With “QVQLVESGGGLVQAGGSLRLSCAASGFTFSNYAMGWYRQAPGKEREFVAAISGTGGSTYYADSVKGRFTISRDNAKNTVYLQMNSLKPEDTAVYYCNARERVSRQYTFDYWGQGTQVTVSS” the “polyreactivity (PSR sort gate)” value was “high polyreactivity”.

For “QVQLVESGGGLVQAGGSLSLSCAATGLTFQQYAMGWYRQAPWKERELVAAITVSGGHTYYADSVKGRFTISRDNAKNTVYLQMNTLKPEDTAVYYCAAPPGYTGRYDYYYCGQGTQVTVSS”, the “polyreactivity (PSR sort gate)” value was “high polyreactivity”.

With “QVQLVESGGGLVQAGGSLRLSCAASGITLHEYVMGWYRQAPGKERELVAAISRRGDSTYYADSVKGRFTISRDNAKNTVYLQMNSLKPEDTAVYYCAARWYWYWSSWDYYSWGQGTQVTVSS” the “polyreactivity (PSR sort gate)” value was “low polyreactivity”.

In the case of “QVQLVESGGGLVQAGGSLRLSCAASGSTFSSNAMGWYRQAPGKERELVAAINRRGGTYYADSVKGRFTISRDNAKNTVYLQMNSLKPEDTAVYYCAAASPYHEYDYWGQGTQVTVSS”, the “polyreactivity (PSR sort gate)” value was “low polyreactivity”.

With “QVQIVESGGGLVQAGGSLRLSCAASGSTFRRYVMGWYRQAPGKERELVAAISWSGTSTNYADSLKGRFTISRDNAKNTVYLHMNSLKPEDTAVYYCATQSLYYRWGLDYCGQGTQVTVSS” the “polyreactivity (PSR sort gate)” value was “high polyreactivity”.

With “QVQLVESGGGLVQAGGSLRLSCAASGNIFPDYAMGWYRQAPGKERELVAAISTSGSSTYYADSVKGRFTISRDNAKNNDYLQMNSLKPEDTAVYYCNAYRNADYVYWGQGTQVTVSS” the “polyreactivity (PSR sort gate)” value was “low polyreactivity”.

With “QVQLVESGGGLVQAGGSLRLSCAASGLTFKSNAMGWYRPAPGKERELVASISKRGGTTYYADSVKGRFTISRDNAKNTVYLQMNSLKPEDTAVYYCAAQSRATTYSWWTGSDYWGQGTQVTVSS” the “polyreactivity (PSR sort gate)” value was “high polyreactivity”.

In the case of “QVQLVESGGGLVQAGGSLRLSCAASGITFVRNAMGWYRQAPGKEREFVAAISWSGGSTYYADSVKGRFTISRDNAKNTVYLQMNSLKPEDTAVYYCAAAYPRVTYKYGYYWGQGTQVTVSS”, the “polyreactivity (PSR sort gate)” value was “high polyreactivity”.

With “QVQLVESGGGLVQAGGSLRLSCAASGSTFHKYVMGWYRQAPGKEREFVAAISRRGTRTYYADSVKGRFTISRDNAKNTVYLQMNSLKPEDTAVYYCNVYYYRTYTHFLPGYEYWGQGTQVTVSS” the “polyreactivity (PSR sort gate)” value was “high polyreactivity”.

For “QVQLVESGGGLVQAGGSLRLSCAASGINFKRYAMGWYRQAPGKESELVATINRDGRTSYADSVKGRFTISRDNAKNTVYLQMNSLKQEDTAVYYFNKRGTYATPTPGNLFDYWGQGTLVTVSS”, the “polyreactivity (PSR sort gate)” value was “low polyreactivity”.

With “QVQLLESGGGLVQAGGSLRLSCAASGSIFYYYTMGWYRQAPGKETELVAAISRGGSTNYADSVKGRFTISRDNAKNTVYLQMNSLKPEDTAVYYCAADRLSGRYAYRFDYWGQGTQVTVSS” the “polyreactivity (PSR sort gate)” value was “low polyreactivity”.

With “QVQLVESGGGLVQAGGSLRLSCAASGRIFYKYVMGWYRQAPGNERELVATITSGGSTYYADSVKGRFTISRDNAKNTVYLQMNSLKPEDTAVYYCAARKYYSRAYDYWGQGTQVTVSS” the “polyreactivity (PSR sort gate)” value was “high polyreactivity”.

With “QVQLVESVGGLDQAGGSLRLSCAASGRTFYRNAMGLYRQAPGKERELVSAITGSGGSTYYADSVKGRFTISRDNAKNTVYLQMNSLKPEDTAVYYCAAGTRIYNSLIGFDYWGQGTQVTVSS” the “polyreactivity (PSR sort gate)” value was “high polyreactivity”.
